Earlier results as cited in patent publication US12377186B2, “Antimicrobial biopolymer compositions, methods of synthesis, and applications of use” (ARIZONA BOARD OF REGENTS ON BEHALF OF THE UNIVERSITY OF …, priority 2018, dated 2025).

Settings: cited from earlier work

[(VPGAG)2 (VPGYG)1 (VPGAG)2]36 [ELP (A2Y1A2)36]
Tt, experimental of ELP (Tyr) (180 ELP pentapeptide repeats, according to previous research by Ingrole et al.): 25 °C | change in Tt when fused to a hydrophilic peptide (relative to the smaller ELP(A2Y1A2)24): less change in Tt
